System: T1, GeoCas9 (Geobacillus stearothermophilus)
T1 sequence: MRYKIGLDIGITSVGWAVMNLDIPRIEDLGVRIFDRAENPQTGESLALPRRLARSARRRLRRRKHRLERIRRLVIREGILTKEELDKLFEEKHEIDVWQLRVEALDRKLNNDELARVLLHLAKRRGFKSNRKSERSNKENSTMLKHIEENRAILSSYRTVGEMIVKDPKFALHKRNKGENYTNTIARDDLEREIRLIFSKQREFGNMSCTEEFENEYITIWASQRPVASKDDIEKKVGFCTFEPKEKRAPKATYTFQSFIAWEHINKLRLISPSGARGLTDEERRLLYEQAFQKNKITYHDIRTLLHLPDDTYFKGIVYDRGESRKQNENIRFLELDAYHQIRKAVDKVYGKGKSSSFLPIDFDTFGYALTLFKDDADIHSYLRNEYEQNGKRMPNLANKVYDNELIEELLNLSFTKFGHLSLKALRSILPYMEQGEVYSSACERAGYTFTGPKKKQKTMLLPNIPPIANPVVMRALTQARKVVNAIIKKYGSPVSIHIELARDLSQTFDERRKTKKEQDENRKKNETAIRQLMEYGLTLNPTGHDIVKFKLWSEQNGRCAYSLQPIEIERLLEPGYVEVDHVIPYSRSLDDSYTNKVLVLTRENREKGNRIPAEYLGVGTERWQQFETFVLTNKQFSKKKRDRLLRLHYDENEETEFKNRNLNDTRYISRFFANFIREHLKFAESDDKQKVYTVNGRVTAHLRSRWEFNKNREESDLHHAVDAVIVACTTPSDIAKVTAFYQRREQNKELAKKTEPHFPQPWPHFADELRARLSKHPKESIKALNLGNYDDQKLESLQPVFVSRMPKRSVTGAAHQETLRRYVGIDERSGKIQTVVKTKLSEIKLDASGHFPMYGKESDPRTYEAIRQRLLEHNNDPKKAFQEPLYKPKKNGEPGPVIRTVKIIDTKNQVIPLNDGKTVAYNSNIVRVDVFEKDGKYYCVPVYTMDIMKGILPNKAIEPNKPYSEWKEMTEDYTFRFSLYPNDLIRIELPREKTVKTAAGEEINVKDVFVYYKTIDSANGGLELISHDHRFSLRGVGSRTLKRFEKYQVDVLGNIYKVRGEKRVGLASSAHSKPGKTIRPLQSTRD
Assay: cleavage_in_vitro
Conditions: 21-22 nt spacer cleaves more than 5-fold faster than 20 nt; 37 C; exact substrate PAM not given

GeoCas9 sgRNA with 20 nt spacer ; radiolabeled target DNA with CRAA PAM
cleavage rate fold increase: > 5 fold

— patent US20200392472
